Assay results taken from article PMC12287301, “DSK2-mediated degradation of F-box protein LAO1 and class I TCPs modulates the nitrogen starvation response” (EMBO Reports, 2025).

B1: GST-DSK2B CT (domain or fragment, Arabidopsis thaliana, UniProt Q9SII8 237-551, looked up)
chain: MRNTDRAMSNIESMPEGFNMLRRMYENVQEPLMNATTMSGNAGNNTGSNPFAALLGNQGVTTQGSDASNNSSTPNAGTGTIPNANPLPNPWGATGGQTTAPGRTNVGGDARSPGLGGLGGLGSLGGLGGLGMLGADSPLGATPDASQLSQLLQNPAISQMMQSVFSNPQYMNQLMSLNPQLRSMLDSNPQLREMMQNPDFLRQFSSPEMMQQMMTLQQSLSQNRNTASQDAGQTGAATGNNGGLDLLMNMFGSLGAGGLSGTNQSNVPPEERYATQLQQLQEMGFYDRAENIRALLATNGNVNAAVERLLGSIGQ
notes: DSK2B (AT2G17200), Arabidopsis thaliana, C-terminus (DSK2BCT); the limits 237 to 552 a.a. are printed for the two-hybrid construct DSK2B-CT of the same name; Cloned into EcoRI-digested pGEX-4T-1; also called pGEX-4T-1-DSK2CT; source: E. coli Rosetta (DE3), purified (GST agarose)
B2: His-TCP7 (natural protein)
chain: not shown
notes: TCP7 (AT5G23280), Arabidopsis thaliana; Cloned into BamHI/SalI-digested pET32a; also called recombinant His-TCP7; pET32a-TCP7; source: E. coli Rosetta (DE3), purified (Ni-NTA agarose)
B3: His-TCP21 (natural protein)
chain: not shown
notes: TCP21 (AT5G08330), Arabidopsis thaliana; Cloned into BamHI/SalI-digested pET32a; also called recombinant His-TCP21; pET32a-TCP21; source: E. coli Rosetta (DE3), purified (Ni-NTA agarose)

Key:
Assay in all cases: pull-down; GST pull-down: GST or GST-DSK2BCT incubated with His-tagged TCP in 50 mM Tris-HCl pH 7.5, 150 mM NaCl, 0.5% Triton X-100, 1 mM PMSF at 4 C for 3 h, then GST beads 1 h; blots anti-GST and anti-His
Conditions in all cases: both partners purified
His-TCP14 = target: T1, His-TCP14 (Arabidopsis thaliana, UniProt Q93Z00 1-489)
T1 construct: TCP14 (AT3G47620), Arabidopsis thaliana; Cloned into BamHI/SalI-digested pET32a; also called recombinant His-TCP14; pET32a-TCP14; source: E. coli Rosetta (DE3), purified (Ni-NTA agarose)
T1 sequence (Q93Z00 whole entry): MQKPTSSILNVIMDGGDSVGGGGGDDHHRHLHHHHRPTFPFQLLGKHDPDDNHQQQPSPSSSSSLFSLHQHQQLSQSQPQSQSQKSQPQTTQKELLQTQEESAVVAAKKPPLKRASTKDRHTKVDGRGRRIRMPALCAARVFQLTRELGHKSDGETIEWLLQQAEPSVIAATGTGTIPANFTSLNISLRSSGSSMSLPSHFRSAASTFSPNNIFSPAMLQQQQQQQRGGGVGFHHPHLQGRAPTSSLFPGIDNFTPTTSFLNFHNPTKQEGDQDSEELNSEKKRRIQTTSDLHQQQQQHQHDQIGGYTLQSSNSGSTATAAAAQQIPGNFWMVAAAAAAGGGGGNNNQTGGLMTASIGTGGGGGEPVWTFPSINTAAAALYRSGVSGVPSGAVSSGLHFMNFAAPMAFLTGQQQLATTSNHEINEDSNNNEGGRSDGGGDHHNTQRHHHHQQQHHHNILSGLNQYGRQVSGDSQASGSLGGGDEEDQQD

His-TCP15 = target: T2, His-TCP15 (Arabidopsis thaliana, UniProt Q9C9L2 1-325)
T2 construct: TCP15 (AT1G69690), Arabidopsis thaliana; Cloned into BamHI/SalI-digested pET32a; also called recombinant His-TCP15; pET32a-TCP15; source: E. coli Rosetta (DE3), purified (Ni-NTA agarose)

GST-DSK2B CT = target: B1

Binder | binding result (His-TCP14) | binding result (His-TCP15) | binding result (GST-DSK2B CT)
B1 | binds | binds | –
B2 | – | – | binds
B3 | – | – | binds
